Experimental findings from publication PMC9067936, “SHIP164 is a chorein motif lipid transfer protein that controls endosome–Golgi membrane traffic” (The Journal of Cell Biology, 2022) are described below.

This data set deals with the molecule itself. Briefly: negative-stain electron microscopy; 2D class averages of negatively stained purified protein (50 nM, 2% uranyl acetate, carbon-coated copper grids); MBP densities used to locate the N-termini.

B1: MBP-SHIP164 fusion (MBP fused to the N-terminus of SHIP164_(Δ901–1099)) (natural protein)
chain: not shown
notes: SHIP164 (UHRF1BP1L), human, codon-optimised ORF; lacks residues 901-1099; Probably made in Expi293F and purified as m1, possibly with a 3xFLAG tag as well; not shown: MBP (E. coli MBP residues 27–392 and two additional alanines), N-terminal, kept
Usually stoichiometry N stands for the number of molecules, sites or subunits per partner or assembly. Take B1: the “stoichiometry N” value stood at 2.

B2: 3XFLAG-SHIP164_(Δ901–1099) (natural protein)
chain: not shown
notes: SHIP164 (UHRF1BP1L), human, codon-optimised ORF from Genscript; construct lacking the predicted unstructured segment, residues 901-1099; Seen as a tail-to-tail dimer in vitro; also called 3×FLAG-SHIP164_(Δ901–1099); UHRF1BP1L; source: Expi293F, transfected, purified (anti-FLAG M2 resin, gel filtration on Superdex 200); not shown: 3xFLAG, N-terminal, kept
Turning to B2, the “stoichiometry N” value worked out at 2.
